Results reported in publication PMC7346098 (Biochemistry, 2020).

Biological target: T1, KaiC_(S431E,T432E) (Synechococcus elongatus (PCC 7942), UniProt Q79PF4 1-519, S431E | T432E)
T1 sequence (looked up): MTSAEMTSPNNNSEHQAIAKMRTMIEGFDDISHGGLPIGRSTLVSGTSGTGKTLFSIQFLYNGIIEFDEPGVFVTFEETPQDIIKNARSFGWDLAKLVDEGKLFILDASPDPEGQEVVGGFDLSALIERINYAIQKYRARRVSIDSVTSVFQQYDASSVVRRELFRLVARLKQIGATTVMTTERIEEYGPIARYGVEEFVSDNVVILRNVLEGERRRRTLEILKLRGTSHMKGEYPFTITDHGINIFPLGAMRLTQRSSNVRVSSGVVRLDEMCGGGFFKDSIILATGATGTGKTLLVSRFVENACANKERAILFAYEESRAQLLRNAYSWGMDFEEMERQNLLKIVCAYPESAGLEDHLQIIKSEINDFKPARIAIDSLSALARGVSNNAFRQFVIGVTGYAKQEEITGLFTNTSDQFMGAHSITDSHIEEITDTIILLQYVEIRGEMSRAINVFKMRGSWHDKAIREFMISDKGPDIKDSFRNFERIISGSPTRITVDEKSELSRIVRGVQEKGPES
Experiment: fluorescence polarisation

B1: WT-KaiB (natural protein, Synechococcus elongatus (PCC 7942), UniProt Q79PF5 1-102, looked up)
chain: MSPRKTYILKLYVAGNTPNSVRALKTLKNILEVEFQGVYALKVIDVLKNPQLAEEDKILATPTLAKVLPLPVRRIIGDLSDREKVLIGLDLLYGELQDSDDF
B1: binds.
